Laboratory results reported in patent US20230038761, “REGULATION OF VON WILLEBRAND FACTOR (VWF)” (BAND THERAPEUTICS, LLC, published 2023).

B1: BT200/BT101 duplex (dsRNA)
RNA 1: GCCAGGGACCUAAGACACAUGUCCCUGGC
RNA 2: ACAUGUGUCUUAGGUCCCUGGCT
modifications: all residues 2'-OMe in both strands; BT200 5' PEG40K-NH; 3' idT on both strands

How the values were obtained:
[1] = target: T1, von Willebrand factor (VWF) (Homo sapiens, UniProt P04275 SEQ:764-2813); experiment: ELISA with anti-PEG detection; dPBS, 37 C, 2 h
Procedure: (§1) The affinity of BT200, with or without pre-incubation with BT101, for purified human VWF was evaluated using an enzyme-linked immunosorbent assay (ELISA) method. In this study, purified human VWF protein was dissolved in Dulbecco's phosphate buffered saline (dPBS) buffer at a concentration of 10 μg/mL and 100 μL of this solution was added to each well of a Nunc Maxisorp 96-well plate. The plate was incubated overnight at 4° C. The following day, the plate was washed 3 times, followed by blocking with 5% bovine serum albumin (BSA) in dPBS at room temperature for 90 minutes. The blocked plate was then washed 3 times before adding either BT200 at concentrations of 0.3, 1, 3, 10, 30, 100, 300, 1000, 3000, and 10000 nM or a pre-incubated 1:1 molar ratio of BT101:BT200 at the same concentrations. BT101 and BT200 were mixed and incubated at 37° C. for 30 minutes prior to addition to the plate.
(§2) Plates were then incubated at 37° C. for 2 hours. Each plate was then washed 3 times and 100 μL of anti-PEG antibody at 1 μg/mL in 1% BSA/dPBS was added to each well and incubated for 1 hour at room temperature. […] To stop the reaction, 100 μL of 2 N H₂SO₄ was added to each well and the plate was then read at 450 nm for absorbance and the mean absorbance under each set of conditions was recorded.

[2] = target: T1, von Willebrand factor (VWF); experiment: ELISA; no OD increase up to 10 uM BT200 after pre-incubation with BT101 at 1:1; dPBS, 37 C
Procedure: as §1, §2

T1 sequence (P04275 764-2813 Q852R): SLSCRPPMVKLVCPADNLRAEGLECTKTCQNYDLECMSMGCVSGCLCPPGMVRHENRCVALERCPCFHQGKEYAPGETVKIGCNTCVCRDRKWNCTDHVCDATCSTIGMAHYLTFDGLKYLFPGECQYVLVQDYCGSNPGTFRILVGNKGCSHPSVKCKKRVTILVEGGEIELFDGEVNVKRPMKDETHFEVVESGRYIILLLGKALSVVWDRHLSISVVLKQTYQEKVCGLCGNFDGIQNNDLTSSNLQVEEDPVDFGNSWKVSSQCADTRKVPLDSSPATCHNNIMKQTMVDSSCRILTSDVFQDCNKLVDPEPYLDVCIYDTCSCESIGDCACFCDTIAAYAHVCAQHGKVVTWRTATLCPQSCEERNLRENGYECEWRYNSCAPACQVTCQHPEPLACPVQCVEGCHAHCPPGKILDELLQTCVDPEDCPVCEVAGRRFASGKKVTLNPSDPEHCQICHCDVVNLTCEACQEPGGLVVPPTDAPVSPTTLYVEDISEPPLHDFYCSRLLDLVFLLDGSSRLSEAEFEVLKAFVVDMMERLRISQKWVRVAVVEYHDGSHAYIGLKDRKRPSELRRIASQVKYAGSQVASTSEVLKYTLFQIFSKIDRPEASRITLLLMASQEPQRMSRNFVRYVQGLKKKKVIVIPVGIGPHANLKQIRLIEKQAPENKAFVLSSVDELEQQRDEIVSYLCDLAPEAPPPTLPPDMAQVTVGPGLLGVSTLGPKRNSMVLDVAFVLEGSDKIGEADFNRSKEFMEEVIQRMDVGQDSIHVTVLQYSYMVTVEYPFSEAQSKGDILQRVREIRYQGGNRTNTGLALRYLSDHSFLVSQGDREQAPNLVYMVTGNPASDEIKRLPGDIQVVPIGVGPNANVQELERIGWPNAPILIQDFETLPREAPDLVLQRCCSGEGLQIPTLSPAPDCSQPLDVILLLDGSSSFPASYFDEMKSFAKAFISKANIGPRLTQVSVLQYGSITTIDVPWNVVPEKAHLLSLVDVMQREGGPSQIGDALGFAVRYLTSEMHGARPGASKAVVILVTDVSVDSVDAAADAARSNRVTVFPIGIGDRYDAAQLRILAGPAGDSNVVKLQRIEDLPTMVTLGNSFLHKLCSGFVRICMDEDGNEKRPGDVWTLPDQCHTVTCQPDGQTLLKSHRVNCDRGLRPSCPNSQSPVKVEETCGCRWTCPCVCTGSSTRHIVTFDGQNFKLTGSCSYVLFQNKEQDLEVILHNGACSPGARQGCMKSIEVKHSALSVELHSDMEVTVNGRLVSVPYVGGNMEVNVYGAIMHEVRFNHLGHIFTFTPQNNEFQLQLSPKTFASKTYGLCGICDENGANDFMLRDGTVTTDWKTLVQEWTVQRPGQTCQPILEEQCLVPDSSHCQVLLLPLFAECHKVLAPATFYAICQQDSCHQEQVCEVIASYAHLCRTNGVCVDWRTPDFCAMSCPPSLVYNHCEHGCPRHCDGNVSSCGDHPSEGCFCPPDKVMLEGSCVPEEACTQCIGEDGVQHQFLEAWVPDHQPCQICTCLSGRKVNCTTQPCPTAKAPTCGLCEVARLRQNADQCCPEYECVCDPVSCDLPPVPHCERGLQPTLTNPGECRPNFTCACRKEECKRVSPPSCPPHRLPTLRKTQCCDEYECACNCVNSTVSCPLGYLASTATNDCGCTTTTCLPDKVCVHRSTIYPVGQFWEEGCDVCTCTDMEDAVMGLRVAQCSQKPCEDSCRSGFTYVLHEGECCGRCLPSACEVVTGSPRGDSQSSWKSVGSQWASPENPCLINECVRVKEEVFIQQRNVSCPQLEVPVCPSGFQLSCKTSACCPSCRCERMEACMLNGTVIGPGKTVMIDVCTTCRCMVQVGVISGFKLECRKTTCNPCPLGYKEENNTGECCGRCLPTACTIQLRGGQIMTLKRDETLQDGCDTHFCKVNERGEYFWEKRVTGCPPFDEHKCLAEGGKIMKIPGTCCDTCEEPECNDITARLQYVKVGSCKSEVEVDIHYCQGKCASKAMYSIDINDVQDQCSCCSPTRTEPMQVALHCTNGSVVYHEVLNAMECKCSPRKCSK

Row | Binder | EC50 [1] | binding result [2]
1 | GCCAGGGACCUAAGACACAUGUCCCUGGC (ssRNA, all residues 2'-OMe; 5' PEG40K-NH; 3' idT (final t of SEQ 6)) [BT200] | 331 nM | –
2 | B1 | – | no binding
